From patent US20240117030A1 (Pfizer, published 2024)
Where two headings read alike, the source gives them in different places.

What was measured:
Experiment in all cases: cell-based or functional assay
human IL-13 [1] = target: T1, human IL-13 (human, UniProt P35225 35-146)
human IL-13 [2] = target: T1, human IL-13; remark: listed apart in the source
recombinant human IL-13 [3] = target: recombinant human IL-13 (human, UniProt P35225 35-146)
[4] = target: recombinant human TSLP (glycosylated long form) (human, UniProt Q969D9 29-159)
recombinant human IL-4 [5] = target: T2, recombinant human IL-4 (human, UniProt P05112 25-153)
T2 sequence (looked up): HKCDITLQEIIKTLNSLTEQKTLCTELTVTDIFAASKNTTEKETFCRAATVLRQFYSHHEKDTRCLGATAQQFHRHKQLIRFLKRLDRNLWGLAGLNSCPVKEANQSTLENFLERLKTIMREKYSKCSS

recombinant human IL-4 [6] = target: T3, recombinant human IL-4 (human, UniProt P05112 25-153); remark: listed apart in the source
T3 sequence (looked up): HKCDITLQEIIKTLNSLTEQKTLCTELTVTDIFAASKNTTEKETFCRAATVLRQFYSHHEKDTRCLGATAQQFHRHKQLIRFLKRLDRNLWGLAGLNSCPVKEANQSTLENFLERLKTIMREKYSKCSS

recombinant human IL-13 [7] = target: recombinant human IL-13 (human, UniProt P35225 35-146); remark: listed apart in the source

T1 sequence (P35225 35-146 limits assumed, form in doubt): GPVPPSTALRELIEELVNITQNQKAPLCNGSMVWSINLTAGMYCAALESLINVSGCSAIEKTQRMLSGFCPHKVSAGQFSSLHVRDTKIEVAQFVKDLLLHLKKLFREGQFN

B1: IL13-1307 (antibody, IgG1, V domains shown)
VH: EVQLVESGGGLVQPGGSLRLSCAASGFTFSSYAMSWVRQAPGKGLEWVASISSGDTTYYPDSVKGRFTISRDNAKNSLYLQMNSLRAEDTAVYYCARLDGYYFGFPYWGQGTLVTVSS
VL: DIQMTQSPSSLSASVGDRVTITCKASESVDHSGSSLMHWYQQKPGKAPKLLIYRASNLESGVPSRFSGSGSGTDFTLTISSLQPEDFATYYCQQSNEDPWTFGGGTKVEIK
CD23 IC50 [pM] (human IL-13 [1]): 214 pM | pSTAT6 IC50 [pM] (human IL-13 [1]): 225 pM | CD23: Fold bioactivity relative to IL13-0001 (human IL-13 [2]): 0.03 fold | CD23: Fold bioactivity relative to IL13-1307 (human IL-13 [2]): 1 fold | CD23 IC50 [pM] (human IL-13 [2]): 306 pM | pSTAT6: Fold bioactivity relative to IL13-0001 (human IL-13 [2]): 0.7 fold | pSTAT6: Fold bioactivity relative to IL13-1307 (human IL-13 [2]): 1 fold | pSTAT6 IC50 [pM] (human IL-13 [2]): 140 pM

B2: IL13-0001 (antibody, human IgG1, kappa, V domains shown)
VH: EVQLVESGGGLVQPGGSLRLSCAASGFTFSSYAMSWVRQAPGKGLEWVASISSGDTTYYPDSVKGRFTISRDNAKNSLYLQMNSLRAEDTAVYYCARNEGYYFGLTLWGQGTLVTVSS
VL: DIQMTQSPSSLSASVGDRVTITCKASESVDHFGWSLVHWYQQKPGKAPKLLIYRASNLESGVPSRFSGSGSGTDFTLTISSLQPEDFATYYCQQSNEDPWTFGGGTKVEIKR
a-hIL-13 bioassay (IC50, pM) (recombinant human IL-13 [3]): 4.83 pM

B3: IL13-1283 (antibody, human IgG1, kappa, V domains shown)
VH: EVQLVESGGGLVQPGGSLRLSCAASGFTFISYAMSWVRQAPGKGLEWVASISSGGNTYYPDSVKGRFTISRDNAKNSLYLQMNSLRAEDTAVYYCARLDGYYFGFAYWGQGTLVTVSS
VL: DIQMTQSPSSLSASVGDRVTITCKASESVDNYGKSLMHWYQQKPGKAPKLLIYRASNLESGVPSRFSGSGSGTDFTLTISSLQPEDFATYYCQQSNEDPWTFGGGTKVEIKR
CD23 IC50 [pM] (human IL-13 [1]): 261 pM | pSTAT6 IC50 [pM] (human IL-13 [1]): 427 pM

B4: TSLP-0820 (antibody, human IgG1, lambda, V domains shown)
VH: EMQLVESGGGLVQPGGSLRLSCAASGFTFRTYGMHWVRQAPGKGLEWVAVIWYDGSNKHYADSVKGRFTISRDNAKNSLYLQMNSLRAEDTAVYYCARAPQWYLVHEAFDIWGQGTMVTVSS
VL: SYVLTQPPSVSVAPGQTARITCGGNNLGSKSVHWYQQKPGQAPVLVVYDDSDRPSWIPERFSGSNSGNTATLTISRGEAGDEADYYCQVWDSSSDHVVFGGGTKLTVLG
a-TSLP TARC bioassay (fold change to TSLP-0001) [4]: 2.5 fold

B5: TSLP-2002 (antibody, human IgG1, lambda, V domains shown)
VH: EMQLVESGGGLVQPGGSLRLSCAASGFTFRTYGMHWVRQAPGKGLEWVAVIWYDGSNKHYADSVKGRFTISRDNAKNSLYLQMNSLRAEDTAVYYCARAPQWYLVHEAFDIWGQGTMVTVSS
VL: SYVLTQPPSVSVAPGQTARITCGGNNLGSKSVHWYQQKPGQAPVLVVYDDKDRPSWIPERFSGSNSGNTATLTISRGEAGDEADYYCQVWDSKSDHVVFGGGTKLTVLG
a-TSLP TARC bioassay (fold change to TSLP-0001) [4]: 5.1 fold

B6: TSLP-2004 (antibody, human IgG1, lambda, V domains shown)
VH: EMQLVESGGGLVQPGGSLRLSCAASGFTFRTYGMHWVRQAPGKGLEWVAVIWYDGSNKHYADSVKGRFTISRDNAKNSLYLQMNSLRAEDTAVYYCARAPQWYLVHEAFDIWGQGTMVTVSS
VL: SYVLTQPPSVSVAPGQTARITCGGNNLGSKSVHWYQQKPGQAPVLVVYDDSDRPSWIPERFSGSNSGNTATLTISRGEAGDEADYYCQVWDKSSDHVVFGGGTKLTVLG
a-TSLP TARC bioassay (fold change to TSLP-0001) [4]: 6.4 fold

B7: TSLP-2000 (antibody, human IgG1, lambda, V domains shown)
VH: EMQLVESGGGLVQPGGSLRLSCAASGFTFRTYGMHWVRQAPGKGLEWVAVIWYDGSNKHYADSVKGRFTISRDNAKNSLYLQMNSLRAEDTAVYYCARAPQWYLVHEAFDIWGQGTMVTVSS
VL: SYVLTQPPSVSVAPGQTARITCGGNNLGSKSVHWYQQKPGQAPVLVVYDDSDRPSWIPERFSGSNSGNTATLTISRGEAGDEADYYCQVWDSSSKHVVFGGGTKLTVLG
a-TSLP TARC bioassay (fold change to TSLP-0001) [4]: 7.2 fold

B8: IL4-0002 (antibody, human IgG1, kappa)
heavy: EVTLRESGPALVKPTQTLTLTCTFSGFSLSNFGEGLSWIRQPPGKGLEWLAHIYWDDDKRYNPSLKSRLTISKDTSRNQVVLTMTNMDPVDTATYYCARRETVFYWYFDVWGQGTTVTVSSASTKGPSVFPLAPSSKSTSGGTAALGCLVKDYFPEPVTVSWNSGALTSGVHTFPAVLQSSGLYSLSSVVTVPSSSLGTQTYICNVNHKPSNTKVDKKVEPKSCDKTHTCPPCPAPEAAGAPSVFLFPPKPKDTLMISRTPEVTCVVVDVSHEDPEVKFNWYVDGVEVHNAKTKPREEQYNSTYRVVSVLTVLHQDWLNGKEYKCKVSNKALPAPIEKTISKAKGQPREPQVYTLPPSREEMTKNQVSLTCLVKGFYPSDIAVEWESNGQPENNYKTTPPVLDSDGSFFLYSKLTVDKSRWQQGNVFSCSVMHEALHNHYTQKSLSLSPGK
light: DIQMTQSPSSLSASVGDRVTITCKASQSVDEDGDSYMNWYQQKPGKAPKLLIYAASNLESGVPSRFSGSGSGTDFTLTISSLQPEDFATYYCQQSNEDPPTFGGGTKVEIKRTVAAPSVFIFPPSDEQLKSGTASVVCLLNNFYPREAKVQWKVDNALQSGNSQESVTEQDSKDSTYSLSSTLTLSKADYEKHKVYACEVTHQGLSSPVTKSFNRGEC
a-hIL-4 bioassay IC50, pM) (recombinant human IL-4 [5]): 3.42 pM

B9: IL413TSLP-1037 (other)
heavy: not shown
chain 1: DIQMTQSPSSLSASVGDRVTITCKASESVDHFGWSLVHWYQQKPGKAPKLLIYRASNLESGVPSRFSGSGSGTDFTLTISSLQPEDFATYYCQQSNEDPWTFGGGTKVEIKRTVAAPSVFIFPPSDEQLKSGTASVVCLLNNFYPREAKVQWKVDNALQSGNSQESVTEQDSKDSTYSLSSTLTLSKADYEKHKVYACEVTHQGLSSPVTKSFNRGECGGGGSEVTLRESGPALVKPTQTLTLTCTFSGFSLSNFGEGLSWIRQPPGKGLEWLAHIYWDDDKRYNPSLKSRLTISKDTSRNQVVLTMTNMDPVDTATYYCARRETVFYWYFDVWGQGTTVTVSSASTKGPSVFPLAPSSKSTSGGTAALGCLVKDYFPEPVTVSWNSGALTSGVHTFPAVLQSSGLYSLSSVVTVPSSSLGTQTYICNVNHKPSNTKVDKKVEPKSCEKTHTCPPCPAPEAAGAPSVFLFPPKPKDTLMISRTPEVTCVVVDVSHEDPEVKFNWYVDGVEVHNAKTKPREEQYNSTYRVVSVLTVLHQDWLNGKEYKCKVSNKALPAPIEKTISKAKGQPREPQVYTLPPSREEMTKNQVSLTCEVKGFYPSDIAVEWESNGQPENNYKTTPPVLDSDGSFFLYSKLTVDKSRWQQGNVFSCSVLHEALHSHYTQKSLSLSPGK
light 1: SYVLTQPPSVSVAPGQTARITCGGNNLGSKSVHWYQQKPGQAPVLVVYDDKDRPSWIPERFSGSNSGNTATLTISRGEAGDEADYYCQVWDKSSDHVVFGGGTKLTVLGQPKAAPSVTLFPPSSEELQANKATLVCLISDFYPGAVTVAWKADSSPVKAGVETTTPSKQSNNKYAASSYLSLTPEQWKSHRSYSCQVTHEGSTVEKTVAPTECS
light 2: DIQMTQSPSSLSASVGDRVTITCRASQSVDEEGDSYMNWYQQKPGKAPKLLIYAASNLESGVPSRFSGSGSGTDFTLTISSLQPEDFATYYCQQSNKDPPTFGGGTKVEIKRTVAAPSVFIFPPSDEQLKSGTASVVCLLNNFYPREAKVQWKVDNALQSGNSQESVTEQDSKDSTYSLSSTLTLSKADYEKHKVYACEVTHQGLSSPVTKSFNRGEC
chain 2: EVQLVESGGGLVQPGGSLRLSCAASGFTFSSYAMSWVRQAPGKGLEWVASISSGDTTYYPDSVKGRFTISRDNAKNSLYLQMNSLRAEDTAVYYCARNEGYYFGLTLWGQGTLVTVSSASTKGPSVFPLAPSSKSTSGGTAALGCLVKDYFPEPVTVSWNSGALTSGVHTFPAVLQSSGLYSLSSVVTVPSSSLGTQTYICNVNHKPSNTKVDKKVEPKSC
IC50 (median), IL-4 induced CD23 expression on human monocytes (recombinant human IL-4 [6]): 0.0105 nM | IC50 (median), IL-13 induced CD23 expression on human monocytes (recombinant human IL-13 [7]): 0.0131 nM

B10: IL413TSLP-1028 (other)
heavy: not shown
chain 1: DIQMTQSPSSLSASVGDRVTITCKASESVDHFGWSLVHWYQQKPGKAPKLLIYRASNLESGVPSRFSGSGSGTDFTLTISSLQPEDFATYYCQQSNEDPWTFGGGTKVEIKRTVAAPSVFIFPPSDEQLKSGTASVVCLLNNFYPREAKVQWKVDNALQSGNSQESVTEQDSKDSTYSLSSTLTLSKADYEKHKVYACEVTHQGLSSPVTKSFNRGECGGGGSEVTLRESGPALVKPTQTLTLTCTFSGFSLSNFGEGLSWIRQPPGKGLEWLAHIYWDDDKRYNPSLKSRLTISKDTSRNQVVLTMTNMDPVDTATYYCARRETVFYWYFDVWGQGTTVTVSSASTKGPSVFPLAPSSKSTSGGTAALGCLVKDYFPEPVTVSWNSGALTSGVHTFPAVLQSSGLYSLSSVVTVPSSSLGTQTYICNVNHKPSNTKVDKKVEPKSCEKTHTCPPCPAPEAAGAPSVFLFPPKPKDTLMISRTPEVTCVVVDVSHEDPEVKFNWYVDGVEVHNAKTKPREEQYNSTYRVVSVLTVLHQDWLNGKEYKCKVSNKALPAPIEKTISKAKGQPREPQVYTLPPSREEMTKNQVSLTCEVKGFYPSDIAVEWESNGQPENNYKTTPPVLDSDGSFFLYSKLTVDKSRWQQGNVFSCSVLHEALHSHYTQKSLSLSPGK
light 1: SYVLTQPPSVSVAPGQTARITCGGNNLGSKSVHWYQQKPGQAPVLVVYDDSDRPSWIPERFSGSNSGNTATLTISRGEAGDEADYYCQVWDSSSKHVVFGGGTKLTVLGQPKAAPSVTLFPPSSEELQANKATLVCLISDFYPGAVTVAWKADSSPVKAGVETTTPSKQSNNKYAASSYLSLTPEQWKSHRSYSCQVTHEGSTVEKTVAPTECS
light 2: DIQMTQSPSSLSASVGDRVTITCRASQSVDEEGDSYMNWYQQKPGKAPKLLIYAASNLESGVPSRFSGSGSGTDFTLTISSLQPEDFATYYCQQSNKDPPTFGGGTKVEIKRTVAAPSVFIFPPSDEQLKSGTASVVCLLNNFYPREAKVQWKVDNALQSGNSQESVTEQDSKDSTYSLSSTLTLSKADYEKHKVYACEVTHQGLSSPVTKSFNRGEC
chain 2: EVQLVESGGGLVQPGGSLRLSCAASGFTFSSYAMSWVRQAPGKGLEWVASISSGDTTYYPDSVKGRFTISRDNAKNSLYLQMNSLRAEDTAVYYCARNEGYYFGLTLWGQGTLVTVSSASTKGPSVFPLAPSSKSTSGGTAALGCLVKDYFPEPVTVSWNSGALTSGVHTFPAVLQSSGLYSLSSVVTVPSSSLGTQTYICNVNHKPSNTKVDKKVEPKSC
IC50 (median), IL-4 induced CD23 expression on human monocytes (recombinant human IL-4 [6]): 0.0128 nM | IC50 (median), IL-13 induced CD23 expression on human monocytes (recombinant human IL-13 [7]): 0.0129 nM

B11: IL13-1306 (antibody, mouse IgG1, V domains shown)
VH: EVKLVESGGDLVKPGGSLKLSCAASGFTFSSYAMSWVRQSPDKRLEWVASISSGDTTYYPDSVKGRFTISRDNARNILYLQMTSLRSEDTAMYYCARLDGYYFGFPYWGQGTLVTVSA
VL: DTVLTQSPASLAVSLGQRATISCKASESVDHSGSSLMHWYQQKPGQSPKLLIYRASNLESGIPARFSGSGSRTDFTLTINPVEADDVATYYCQQSNEDPWTFGGGTKLEIK
pSTAT6 IC50 [pM] (human IL-13 [1]): 290 pM
